T1: Ycdc (Escherichia coli, UniProt P0ACU2)
T1 construct: gene rutR
T1 sequence (P0ACU2 1-212): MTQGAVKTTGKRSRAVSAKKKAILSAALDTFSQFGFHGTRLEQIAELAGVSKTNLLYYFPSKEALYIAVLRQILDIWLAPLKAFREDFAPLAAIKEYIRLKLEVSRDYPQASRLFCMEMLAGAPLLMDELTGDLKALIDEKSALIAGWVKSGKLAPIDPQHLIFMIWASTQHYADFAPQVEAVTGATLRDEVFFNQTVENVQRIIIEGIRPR

B1: etha promoter DNA (dsDNA)
DNA 1: CGGTCATGGATCCACGCTATCAACGTAATGTCGAGGCCGTCAACGAGATGTCGACACTATCGA
DNA 2: CTGACTGGCCGCGGAGGTGGTCACCCTGGCAGCTTACTACGTGTCGATAGATGTCGACATCTCGTTGACGG

What was measured:
Ycdc = target: T1, Ycdc; assay: incubation with bio-c-di-GMP (Supplementary Fig. S4b); format: binding
EthR [1] = target: T2, EthR (Mycobacterium tuberculosis H37Rv, UniProt P9WMC1 1-216); assay: BLI; no c-di-GMP; details: protein: recombinant; tags: 6xHis (E. coli, pET28a) or GST (yeast); chain copies: 2; label: biotin on second strand (Ms6440pr)
T2 sequence (P9WMC1 whole entry): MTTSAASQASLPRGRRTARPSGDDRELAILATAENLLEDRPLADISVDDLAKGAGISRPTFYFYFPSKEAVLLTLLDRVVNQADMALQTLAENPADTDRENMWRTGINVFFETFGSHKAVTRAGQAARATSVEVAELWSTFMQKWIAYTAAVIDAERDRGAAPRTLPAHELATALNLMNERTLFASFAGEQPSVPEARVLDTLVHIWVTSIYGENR

EthR [2] = target: T2, EthR; assay: BLI; 50 uM c-di-GMP; details: protein: recombinant; tags: 6xHis (E. coli, pET28a) or GST (yeast); chain copies: 2; label: biotin on second strand (Ms6440pr)

Molecule	incubation with bio-c-di-GMP (Supplementary Fig. S4b) (Ycdc)	Kd (EthR [1]) [nM]	Kd (EthR [2]) [nM]
Nc1nc2c(ncn2[C@@H]2O[C@@H]3COP(=O)(O)O[C@H]4[C@@H](O)[C@H](n5cnc6c(=O)[nH]c(N)nc65)O[C@@H]4COP(=O)(O)O[C@H]3[C@H]2O)c(=O)[nH]1 [c-di-GMP]	we incubated Escherichia coli Ycdc with bio-c-di-GMP, the result clearly showed that they bind each other	–	–
B1	–	1340	1120

Source: paper PMC5517500, “Cyclic di-GMP regulates Mycobacterium tuberculosis resistance to ethionamide” (Scientific Reports, 2017)
